As a reminder, the stoichiometry N is a count of units in the complex or per binding partner.

The data set concerns the molecule itself. The data set is described as follows: SEC.

B1: purified FrlR UTRA-domain (domain or fragment)
chain: QKVENALLTVSGFTDFGVSQGKATKEKVIEQERVSAAPFCEKLNIPGNSEVFHLCRVMYLDKEPLFIDSSWIPLSRYPDFDEIYVEGSSTYQLFQERFDTRVVSDKKTIDIFAATRPQAKWLKCELGEPLFRISKIAFDQNDKPVHVSELFCRANRITLTIDNKRH
Take B1: the “stoichiometry N” value amounted to 2.
